Assay results reported in patent CN116970083A (SHANGHAI UNICAR THERAPY BIO MEDICINE TECH CO LTD, dated 2023).

Columns and labels:
[1] = biological target: T1, Human TROP-2/TACSTD2 Protein, His Tag (带有His标签的人滋养层细胞表面抗原2(Trop2)胞外段蛋白) (human, UniProt P09758 27-274); assay: phage ELISA, Trop2-His coated at 1ug/ml, anti-M13-HRP, OD450
T1 construct: extracellular domain; Bought protein; also called Trop2-His; Trop2抗原; not shown: His tag
T1 sequence (looked up): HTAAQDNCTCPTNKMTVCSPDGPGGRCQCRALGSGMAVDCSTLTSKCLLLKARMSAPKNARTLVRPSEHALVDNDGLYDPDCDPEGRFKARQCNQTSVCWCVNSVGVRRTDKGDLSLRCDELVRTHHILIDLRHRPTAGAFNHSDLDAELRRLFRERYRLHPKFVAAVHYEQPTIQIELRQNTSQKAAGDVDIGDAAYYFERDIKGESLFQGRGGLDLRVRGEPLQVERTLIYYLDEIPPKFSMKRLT

[2] = biological target: Trop2 on the surface of tumour cell lines (H1975, MDA-MB-231, Bxpc3, T24, PC-9) (UniProt P09758); assay: flow cytometry on H1975 cells, antibody 5ug/ml, anti-Fc PE; blank cells without antibody MFI 621
[3] = biological target: T1, Human TROP-2/TACSTD2 Protein, His Tag …; assay: ELISA, Trop2-His coated at 1ug/ml, antibody diluted 3.3-fold from 5ug/ml, anti-human IgG-Fc HRP
[4] = biological target: Trop2 on the surface of tumour cell lines (H1975, MDA-MB-231, Bxpc3, T24, PC-9) (UniProt P09758); assay: flow cytometry on MDA-MB-231 cells, antibody 5ug/ml, anti-Fc PE; blank cells without antibody MFI 938
[5] = biological target: Trop2 on the surface of tumour cell lines (H1975, MDA-MB-231, Bxpc3, T24, PC-9) (UniProt P09758); assay: flow cytometry on Bxpc3 cells, antibody 5ug/ml, anti-Fc PE; blank cells without antibody MFI 557

B1: 抗Trop2阳性克隆3 (T3), scFv displayed on phage (scFv)
scFv: DIQMTQSPSTLSASVGDRVTITCRASQSISSWLAWYQQKPGKAPKLLIYKASSLESGVPPRFSGSGSGAEFTLTISSLQPDDFATYYCQQYNSYPLTFGGGTKVEVKGGGGSGGGGSGGGGSEVQLVQSGGGLVQPGGSLRLSCEDSGFTFSSYWMSWVRQAPGKGLEWVSSISSSSSYIYYADSVKGRFTISRDNAKNSLYLQMNSLRGEDTAVYYCAREQSSSGFDYWGQGTLVTVSS
notes: Tested as phage supernatant (scFv on M13 phage); also called T3单克隆; T3抗Trop2 scFv
[1]
  binding result: binds

B2: T3单克隆抗体 (T3抗Trop2单克隆抗体) (antibody, human IgG1, kappa, V domains shown)
VH: EVQLVQSGGGLVQPGGSLRLSCEDSGFTFSSYWMSWVRQAPGKGLEWVSSISSSSSYIYYADSVKGRFTISRDNAKNSLYLQMNSLRGEDTAVYYCAREQSSSGFDYWGQGTLVTVSS
VL: DIQMTQSPSTLSASVGDRVTITCRASQSISSWLAWYQQKPGKAPKLLIYKASSLESGVPPRFSGSGSGAEFTLTISSLQPDDFATYYCQQYNSYPLTFGGGTKVEVKR
notes: also called Trop2抗体
[2]
  MFI (Median fluorescence intensity): 65600
[3]
  binding result: binds
[4]
  MFI (Median fluorescence intensity): 3150
[5]
  MFI (Median fluorescence intensity): 174000
